# In publication PMC12785664, “Structure-Functional Examination of Cysteine Synthase A (CysK) from Limosilactobacillus reuteri LR1” (International Journal of Molecular Sciences, 2025):
# How the values were obtained:
# [1] = target: T1, LreCysK (cysteine synthase A from Limosilactobacillus reuteri LR1, His-tag at N-terminus) (Limosilactobacillus reuteri, UniProt A0ABF7PP24); assay: differential scanning calorimetry, with versus without added PLP; type: binding; settings: 1.0 mM PLP, 0.1 M Na-phosphate pH 7.0, 1 °C/min; two calorimetric domains, domain 1 given
# T1 construct: gene cysK
# T1 sequence (A0ABF7PP24 2-307): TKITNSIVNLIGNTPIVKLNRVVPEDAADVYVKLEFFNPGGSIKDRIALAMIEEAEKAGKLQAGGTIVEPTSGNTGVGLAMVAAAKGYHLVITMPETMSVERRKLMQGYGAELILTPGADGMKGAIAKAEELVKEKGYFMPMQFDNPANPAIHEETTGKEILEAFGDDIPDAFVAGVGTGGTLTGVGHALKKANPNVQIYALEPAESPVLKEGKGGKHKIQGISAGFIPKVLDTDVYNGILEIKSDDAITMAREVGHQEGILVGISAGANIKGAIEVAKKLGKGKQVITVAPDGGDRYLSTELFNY
# From the text: differential scanning calorimetry, with versus without added PLP on LreCysK (cysteine synthase A from Limosilactobacillus reuteri LR1, His-tag at N-terminus)
# [2] = target: Cysteine synthase A (CysK) from Limosilactobacillus reuteri LR1 with His-tag on the N-terminus (Limosilactobacillus reuteri LR1); assay: SEC; analytical gel filtration, HiLoad 16/600 Superdex 200 pg, 1 mg of sample, calibrated with Gel Filtration Calibration Kit HMW; monomer to dimer
# CC(=O)OC[C@H](N)C(=O)O = assay: purified protein; settings: saturating sulfide, 5 µM PLP, 10 mM HEPES pH 7.5
# From the text: HILIC HPLC determination of cysteine, nonlinear regression on LreCysK (cysteine synthase A from Limosilactobacillus reuteri LR1, His-tag at N-terminus)
molecule,measurement,setting,value
Cc1ncc(COP(=O)(O)O)c(C=O)c1O [Pyridoxal-5 phosphate],"Tm, °C",[1],80.1 °C
Cysteine synthase A (CysK) from Limosilactobacillus reuteri LR1 with His-tag on the N-terminus (enzyme),stoichiometry N,[2],2
"LreCysK (cysteine synthase A from Limosilactobacillus reuteri LR1, His-tag at N-terminus) (Limosilactobacillus reuteri)",Km,CC(=O)OC[C@H](N)C(=O)O,3.8 ± 0.6 mM
same,kcat,CC(=O)OC[C@H](N)C(=O)O,681 ± 45 s⁻¹
same,kcat/Km,CC(=O)OC[C@H](N)C(=O)O,179000 M⁻¹ s⁻¹
